The text below walks through data of patent US20060018911A1.

In assay [1] the target is 38C13 IgM in 38C13 cell extract. Kind of assay: antibody microarray, printed S1C5, cell extract, goat anti-mouse IgM HRP chemiluminescence.
For assay [2], the target named is purified IgM antibody (38C13). Kind of assay: antibody microarray, printed S1C5, goat anti-mouse IgM HRP chemiluminescence.

In assay [1], “S1C5 anti-idiotype monoclonal antibody (anti-IgM antibody)” showed a highest extract dilution giving signal (fold dilution (1:x)) of 2000 and a lowest printed antibody concentration giving signal of 50 µg/mL. In assay [2], this substance came in with a lowest IgM concentration giving signal of 0.1 µg/mL and a lowest spotted antibody concentration giving signal of 25 µg/mL.
